Article PMC7435202 (Nature Communications, 2020)

Molecular target: the molecule itself
Experiment: cryo-EM structure; native full-length gB with 93k Fab fragments added in molar excess, overnight at +4 °C; Amphipol 8-35, TBS pH7.4, Superose-6; single particle, C3 symmetry imposed

B1: native, full-length VZV glycoprotein B (gB) purified from VZV-infected MeWo cells (natural protein, UniProt Q4JR05 72-931, looked up)
chain: VSPSSFYESLQVEPTQSEDITRSAHLGDGDEIREAIHKSQDAETKPTFYVCPPPTGSTIVRLEPPRTCPDYHLGKNFTEGIAVVYKENIAAYKFKATVYYKDVIVSTAWAGSSYTQITNRYADRVPIPVSEITDTIDKFGKCSSKATYVRNNHKVEAFNEDKNPQDMPLIASKYNSVGSKAWHTTNDTYMVAGTPGTYRTGTSVNCIIEEVEARSIFPYDSFGLSTGDIIYMSPFFGLRDGAYREHSNYAMDRFHQFEGYRQRDLDTRALLEPAARNFLVTPHLTVGWNWKPKRTEVCSLVKWREVEDVVRDEYAHNFRFTMKTLSTTFISETNEFNLNQIHLSQCVKEEARAIINRIYTTRYNSSHVRTGDIQTYLARGGFVVVFQPLLSNSLARLYLQELVRENTNHSPQKHPTRNTRSRRSVPVELRANRTITTTSSVEFAMLQFTYDHIQEHVNEMLARISSSWCQLQNRERALWSGLFPINPSALASTILDQRVKARILGDVISVSNCPELGSDTRIILQNSMRVSGSTTRCYSRPLISIVSLNGSGTVEGQLGTDNELIMSRDLLEPCVANHKRYFLFGHHYVYYEDYRYVREIAVHDVGMISTYVDLNLTLLKDREFMPLQVYTRDELRDTGLLDYSEIQRRNQMHSLRFYDIDKVVQYDSGTAIMQGMAQFFQGLGTAGQAVGHVVLGATGALLSTVHGFTTFLSNPFGALAVGLLVLAGLVAAFFAYRYVLKLKTSPMKALYPLTTKGLKQLPEGMDPFAEKPNATDTPIEEIGDSQNTEPSVNSGFDPDKFREAQEMIKYMTLVSAAERQESKARKKNKTSALLTSRLTGLALRNRRGYSRVRTENVTGV
notes: Varicella-zoster virus glycoprotein B, 931 amino acids, ORF31, strain pOka; cleaved by furin: both uncleaved (130 kDa) and cleaved (65 kDa) gB are present; also called native gB; full-length gB
stoichiometry N: 3
